# Test results as given in the nanobody polyreactivity screen of Harvey et al. (2022).
# Assay: yeast display, Sf9 membrane polyspecificity reagent, FACS + sequencing; frameworks hold sequencing errors
# In short: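 In a synthetic yeast display library (Saccharomyces cerevisiae BJ5465), nanobody expression was induced with galactose for 36–48 hours. FACS gates were set low and high (top ~1%) using anti-HA fluorescence for expression and streptavidin fluorescence for binding of the Sf9 membrane reagent. Each polyreactivity label is drawn from the gate of origin.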
row,Sequence,polyreactivity (PSR sort gate)
1,QVQLVESGGGLVQAGGSLRLSCAASGFTFSAYAMGWYRQAPGKERELVAAITRSGGSTYYADSVKGRFTISRDNAKNTVYLQMNSLKPEDTAVYYCAKSDRPWWGYYYQFDYWGQGTQVTVSS,low polyreactivity
2,QVQLVESGGGLVQAGGSLRLSCAASGFTFDFYAMGWYRQAPGKERELVADISSSDGSTYADSVKGRFTISRDNAKNTVYLQMNSLKPEDTAVYYCAADYDNQYDFSLDDEYWGQGTQVTVSS,low polyreactivity
3,QVQLVESGGGLVQAGGSLRLSCAASGSIFYYYAMGWYRQAPGKERELVAAIDFGGGSTYYADSVKGRFTISRDNEKNTVYLQMNSLKPEDTAVYYCAARTFKDAGTAYGSWGQGTQETVSS,high polyreactivity
4,QVQLVESGGGLVQAGGILRLSCASSGSTFGYNVMGWYRQAPGKERELVAAISSSGGSTYYADSVKGRFTISRDTAKNTVYLQMNSLNPEDTAVYYGAADVGFRWYRYTAGPLEYDYWGQGTQVTVSS,high polyreactivity
5,QVQLVESGGGLVQAGGSLRLSCAASGTTFVSNAMGWYRQAPGKERELVAAISKSGGSTYYADSVKGRFTISRDNAKNTVYLQMNSLKPEDTAVYYCAKYTAKSFYGQYDYWGQGTQVTVSS,high polyreactivity
6,QVQLVESGGGLVQAGGSLRLSCAASGSIFPYNPMGWYRQAPGEFGAAISYSSGSTYYADSVKGRFTISRDNAKNTVYLQMNSLKPEDTAVYYCAAGLPKYEHEYWGQVTQVTVSS,low polyreactivity
7,QVQLVESGGGLVQAGGSLRLSCAASGRIFFYYAMGWYRQAPGKERELVAAIRSGGSTNYADSVKGRFTISRDNAKNTVYLQMNSLKPEDTAVYYCAADPSRYYTRRYYYWGQGTQVTVSS,high polyreactivity
8,QVQLVGSGGGLVQAGGSLRLSCAASGRIFSSSAMGWYRQAPGKERELVASIDWSDGSTYYADSVKGRFTISRDNAKNTVYLQRNSLKPEDTAVYYCAADFVPYLIYGYWGQGTQVTVSS,low polyreactivity
9,QVQLVESGGGIVQAGGSLRLSCADSGRTFGYYGMGWYRQAPGKERELVASINFSSGSTFYADSVKGRFTISRDNAKNTVYLQMNSLKPEDTAVYYCAGRAKAVRTYAYNYWGQGTQVTVSS,low polyreactivity
10,QDQLVDSGGGLVQAGGRLRLSCAASGLTLGSYAMGWSRQAPGQVRELVAAITRGGRSNYADSVKGRFSISRDNAKNTVYLQMYSLKPEDTAVYYCYADGPGYAAKYYWIYDYWGQGTQVTVSS,low polyreactivity
11,QVQLVESGGGLVQAGGSLRLSCAASGSIFVKNAMGWYRQAPGKERELVAVITIRTATTYYADSVKGRFTISRDNAKNTVYLQMNSLKPEVTAVYYCAAAKRQRGYLQREGNYWGQGTQVTVSS,low polyreactivity
12,QVQLVESGGGLVQAGGSLRLSCAASGSTIRDYAMGWYRQAPGKDRELVAVIDNSGGRTYYADSVKGRFTISRDNAKNTVYLQMNSLKPEDTAVYYCNTRRIAQYGYWGQGTQVTVSS,high polyreactivity
13,HGQLVESGGGLVQAGGSLRLSCAASGVTFSYYAMGWYRQGPGKDRELVAAITSSAGSTYYADSVKGRFTISRDNAKNTVYLQMNSLKPEDSALYYCNAVYSKLNGGYDYWGQGTQVTVSS,low polyreactivity
14,QVQLVESGGGLVQAGGSLRLSCAASGRTFRWYAMGWYIQAPGKERELVAAITSGGSTYYADSVKGRFTISRDNAKNTVYLQMNSLKPEDTAVYYCNAVSTSGAFDYWGQGTQVTVSS,high polyreactivity
15,QVQLVESGGGLVQAGGSLRLSCAASGLTFYQYAMGWYRQAPGKERELVAGITSGGSTKYADSVKGRFTISRDNAKNTVYLQMNSLKPEDTAVYYCAARFYAFRKGYYYWGQGTQVTVSS,high polyreactivity
16,QVQLVESGGGLVQAGGSLRLSCAASGRTFDGYAMGWYRQAPGKERELVAAISGSGGRTYYADSVKGRFTISRDNAKNTVYLQMNSLKPEVTAVYYCRGYYKYYPDEYDYWGQGTQVTVSS,high polyreactivity
17,HVQLVESGGGLVQAGGSLRLSCAASGRIFNDYSMGWYRQAPGKERELVAAIRRRGDRTYYADSVKGRFTISRDNAKNTVYLQMNSLKPEDTAVYYCAKSQSAKGGYDYWGQGTQVTVSS,high polyreactivity
18,QVQLVESGGGLVQAGGSLRLSCAASGRISLYAMGWYRQAPGKEREMVAAINGRGGNTYYADSVKGRFTISRDNAKNTVYLQMNSLKPEDTAVYYCNAVTVNGPYGYDYWGQGTQVTVSS,high polyreactivity
19,QVQLVESGGGLVQAGGSLRLSCAASGIIFVFNAMGWYRQAPGKERELVAVISTSGDSTYYADSVKGRFTISRDNAKNTVYLQMNSLKPEDTAVYYCAADQRVTYRRGRAYDKYYYWGQGTQVTVSS,low polyreactivity
20,QVQLVESGGGLVQAGGSLRLSCAASGRIFRGYAMGWYRQAPGKERELVATITARGGNTYYADSVKGRFTISRDNAKNTVYLQMNSLKPEETAVYYCAATFYRRYVDLGYWGQGTQVTVSS,high polyreactivity
21,QVQLVESGGGLVQAGGSLRLSCAASGFIFQTNHMGWYRQAPGKERELVAAISSGDSTYYADSVKGRFTISRDNAKNTVYLQMNSLIPEDTAVYYCAADVLGTTTVGGFNYWGQGTQVTVSS,low polyreactivity

row,Sequence,polyreactivity (PSR sort gate)
1,QVQLVESGGGLVQAGGSLRLSCAASGRTFFSYAMGWYRQAPGKERELVAAITYSGGRTYYADSVKGRFTISRDNAKNTVYLQMNSLKPVDTAVYYCAATHYREKMDYWGQGTQVTVSS,low polyreactivity
2,QVQLVESGGGLVQAGGSLRLSCAASGSIFPPYAMGWYRQAPGKERELVATITIRGGSTYYADSVKGRFTISRDNAKNTVYLQMNSLKREDTAVYYCAADYTKYYRRYYYWGQGTQVTVSS,high polyreactivity
3,QVQLVESGGGLVQAGGSLRLSCAASGITFVPYAMGWSRQAPGKERELVAAITWRGGSTYYADSVKGRFTISRDNAKNTVYLQMNSLKPEDTAVYYCAVKFRSSQYQLQYGSLGQGTQVTVSS,high polyreactivity
4,QVQLVESGGGLVQAGGSLRLICAASGFIFRRNARGWSRPAPGTERELVAAISSSGGSTYYADSVKGRFTISRDNAKNTVYLQMNSLKPEDTAVYYCATVLRVTRVDYWGQGTQVTVSS,high polyreactivity
5,QVQLQESGGGLVQAGGSLRLSCTASGTIYSTSAMGWYRQAPGKDREFVADIASGASTNYADSVKGRFTISRDNAKNTVYLQMNSLKPEDTAVYYCAAKRIRRRYKYDYWGQGTQVTVSS,high polyreactivity
6,QVQLVESGGGLVQAGGSLRLSCAASGNIFRRYTLGWSRQAPGKERELVAAISSGGSTNYADSVKGRFTLSRDNAKNTVYLQMNSLKPEDTAVYYCAATRRYIQYGYDYWGQGTQVTVSS,high polyreactivity
7,QVQLVESGGGLVQAGGSLRLSCAASGSTFQVNAMGWYRQAPGKERELVASISGGSSTNYADSVKGRFTISRDNAKNTVYLQMNSLKPEDTAVYYCAAYYLSGLRVAYDYWGQGTQVTVSS,low polyreactivity
8,QVQLVESGGGLVQAGGSLRLSCSASGSIFLYYTMGWYRQEPGKERELVAAITWSGASTYYADSVKGRFTISRDNGKITVYLQMNSLKPEDTAVYYCATRYRYRYCGQGTQVTVSS,high polyreactivity
9,QVQIVESGGGLVQAGGSLRISCAPSGLTFGYYAMGWYRQAPGTERELVAAITYRGGSTYYADSVKGRFTISRDNAKNTVYLQMNSLKPEDTAVYYCATDYFYYDYWGQGTQVTVSS,low polyreactivity
10,QVQLVESGGGLVQAGGSLRLSCAASGRTFRGYAMGWYRQAPGKERELVAGISRSGGSTYYADSVKGRFTISRDNAKNTVYLQMNSLKPEDTAVYYCNAVPIYYAWRRNKPFDYWGQGTQVTVSS,low polyreactivity
11,QVQLVETGGGLVQAGGSLRLSCAASGFTIQRYAMGWYRQAPGKEREFVAAITSGGSTYYADSVKGRFTISRDNAKNTVYLQMNSLKPEDTAVYYCATRAVWSSWGRRYDSWGQGTQVTVSS,high polyreactivity
12,QVQLVESGGGLVQAGGSLRLSCAASGFTYSRYAMGWYRQAPGKERELVAAIRLRDGITYYADSVKGRITISRDNAKNTVYLQMNRLKPEDTAVYYCNAVNRTPVSQLDYWGQGTQVTVSS,high polyreactivity
13,QVQLVESVGGLVQAGGSLSLSCAASVFGRYAMGWYRPAPGKERELVARIYSSGGSTHYADSVKGRFTISRDNAKNTVYLQMNSLKPEDTAVYYCATGSTRWGCYYYWGQGTQVTVSS,high polyreactivity
14,QVQLVESGGGLVQAGGSLRLSCAASGSTFGTYAMGWYRQAPGKERELVAAISRRGGSTYYADSVKGRFTISRDNAKNTVYLQMNSLKTEDTAVYYCAARKFHPDDNYWGQGTQVTVSS,high polyreactivity
15,QVQLVDSGGGLVQAGGSLRLSCAASGFTIKYYAMVWYRQAPGKERELVATITSGARTNYADSVKGRFTISRDNAKNTVYLQMNSLKPEDTAVYYCATPYSAYWQNERDYWGQGTQVTVSS,high polyreactivity
16,QDQLVESGGGLVQAGGSLRLSCAASGSTFFRNAMGWYRQAPGKERELVASITSGGNTKYADSVKGRFTISCDNAKNTVYVQMNSLKPEDTAVYYCAAQFYHFARYSRLYNSWGQGTQVTVSS,low polyreactivity
17,QVQLVESGGGLVQAGGSLRLSCAASGSTFQYYAMGWYRQAPGKERELVAAISSSGGSTYYADSVKGRFTISRDNAKNTVYLQMNSLKPEDTAVYYCAKRFRRFTYTRDYWGQGTQVTVSS,high polyreactivity
18,QVQLVESGGGLVQAGGSLRLSCAASGGTFRTYTMGWYRQAPGKERELVAAINFRGGSTYYADSVKGRFTISRDNAKNTVYLQMNSLKPEDTAVYYCATPLQQEGDWGQGTQVTVSS,high polyreactivity
19,QVQLVESGGGLVQAGGSLRLSCAASGLTFDPYAMGWYRQAPGKEREFVATITTSGDSTYYADSVKGRFTISRDNAKNTVYLQMNSLTPEDTAVYYCNTQSRTLGWPLDYWGQGTQVTVSS,high polyreactivity
20,QLQLVESGGGLVQAGGSLRLSCAASGSILSRYAMGWYRQAPGKEMELVAGITRGGSTNYADSVKGRFTISRDNAKNTVYLHMNSLKPEDTAVYYGAKASRRFLTLGYDYWGQGTQVTVSS,high polyreactivity
